Measured values as given in US20140011732A1 (Novo Nordisk, published 2014).
Positions count from the first letter of the chain named. Values belong to the binder of their own block, whether it stands above or below them. Starred links: 1 amine or outer side, 2 acyl side, 3 side chain; linkers in the order of their positions; H or OH if unused. Non-standard residues stand in square brackets, D forms with d. Groups on a side chain read outwards from the residue. Primed or numbered codes have the meaning given here. No end group written: not given here. *: point of attachment. C20 diacid = O=C(O)CCCCCCCCCCCCCCCCCCC(=O)*; C18 diacid = O=C(O)CCCCCCCCCCCCCCCCC(=O)*; d(βAsp) = O=C(O)[C@@H](CC(=O)[*:2])N[*:1]; γGlu = O=C(O)[C@H](CCC(=O)[*:2])N[*:1]; 2Nal = N[C@@H](Cc1ccc2ccccc2c1)C(=O)O; Desaminohistidyl = O=C(CCc1c[nH]cn1)*; Trx = NC[C@H]1CC[C@H](C(=O)O)CC1; Trx′ = not defined here; AEEA = NCCOCCOCC(=O)O; Aib = CC(C)(N)C(=O)O; Inp = O=C(O)C1CCNCC1; Bn = c1ccc(C*)cc1

Target: T1, human serum albumin (HSA) (human, UniProt P02768 25-609, biotinylated)
T1 construct: also called biotinylated HSA
Assay: competition SPA on biotinylated HSA, 125I acylated GLP-1 tracer;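 further: streptavidin SPA beads carrying biotinylated HSA, competition incubated 20 h at room temperature, plates then read on a TopCount counter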

B3: N-epsilon31{2-[2-(2-{2-[2-((S)-3-carboxy-3-{[1-(19-carboxynonadecanoyl)piperidine-4-carbonyl]amino}propionylamino)ethoxy]ethoxy}acetylamino)ethoxy]ethoxy}acetyl … (peptide)
peptide: H[Aib]EGTFTSDVSSYLEEQAAREFIAKLVKGRG
modifications: not fully specified (residue 25); printed as N-epsilon31{2-[2-(2-{2-[2-((S)-3-carboxy-3-{[1-(19-carboxynonadecanoyl)piperidine-4-carbonyl]amino}propionylamino)ethoxy]ethoxy}acetylamino)ethoxy]ethoxy}acetyl [Aib8, Glu22, Arg26,Lys 31]GLP-1-(7-37)
EC50: 100 to 150 nM

B4: N-epsilon31-(2-{2-[2-(2-{2-[2-((S)-3-Carboxy-3-{[1-(19-carboxy-nonadecanoyl)piperidine-4-carbonyl]amino}propionylamino)ethoxy]ethoxy}acetylamino)ethoxy]ethoxy}a … (peptide)
peptide: H[Aib]EGTFTSDVSSYLEEQAAREFIAKLVRGRG
modifications: not fully specified (residue 25); printed as N-epsilon31-(2-{2-[2-(2-{2-[2-((S)-3-Carboxy-3-{[1-(19-carboxy-nonadecanoyl)piperidine-4-carbonyl]amino}propionylamino)ethoxy]ethoxy}acetylamino)ethoxy]ethoxy}acetyl)[Aib8,Glu22,Arg26,Lys31,Arg34]GLP-1-(7-37)
EC50: 150 to 300 nM

B6: N-ε^20({2-[2-(2-{2-[2-((R)-3-carboxy-3-{[1-(17-carboxyheptadecanoyl)piperidine-4-carbon yl]amino}propionylamino)ethoxy]ethoxy}acetylamino)ethoxy]ethoxy}acetyl) … (peptide)
peptide: H[Aib]EGTFTSDVSSYK([AEEA-AEEA-d(βAsp)-Inp-C18 diacid])EGQAARE[2Nal]IEWLVKGRG-NH2
EC50: 800 to 2000 nM

B8: N-ε^20({2-[2-(2-{2-[2-((R)-3-carboxy-3-{[1-(17-carboxyheptadecanoyl)piperidine-4-carbon yl]amino}propionylamino)ethoxy]ethoxy}acetylamino)ethoxy]ethoxy}acetyl) … (peptide)
peptide: H[Aib]EGT[2Nal]TSDVSSYK([AEEA-AEEA-d(βAsp)-Inp-C18 diacid])EGQAAREFIEWLVKGRG-NH2
EC50: 150 to 300 nM

B9: N-ε^20({2-[2-(2-{2-[2-((R)-3-carboxy-3-{[1-(17-carboxyheptadecanoyl)piperidine-4-carbonyl]amino}propionylamino)ethoxy]ethoxy}acetylamino)ethoxy]ethoxy}acetyl) … (peptide)
peptide: H[Aib]EGTFTSDVSSYK([AEEA-AEEA-d(βAsp)-Inp-C18 diacid])EGQAAREFIEWLT(Bn)KGRG-NH2
modifications: not fully specified; printed as N-ε^20({2-[2-(2-{2-[2-((R)-3-carboxy-3-{[1-(17-carboxyheptadecanoyl)piperidine-4-carbonyl]amino}propionylamino)ethoxy]ethoxy}acetylamino)ethoxy]ethoxy}acetyl) [Aib^8,Lys^20,Arg^28,Glu^30,Thr(O-benzyl)^33,]GLP-1-(7-37)amide
notes: Arg26 used; also called [Aib^8,Lys^20,Arg^26,Glu^30,Thr(O-benzyl)^33,]GLP-1-(7-37)amide derivative
EC50: 300 to 800 nM

B10: N-epsilon26-[2-(2-[2-(2-[2-(2-((R)-3-[trans-4-((9-Carboxynonadecanoylamino]methyl)cyclohexylcarbonylamino]3-carboxypropionylamino)ethoxy)ethoxy]acetylamino)etho … (peptide)
peptide: H[Aib]EGTFTSDVSSYLEEQAAKEFIAWLVQGRG
modifications: not fully specified (residue 20); printed as N-epsilon26-[2-(2-[2-(2-[2-(2-((R)-3-[trans-4-((9-Carboxynonadecanoylamino]methyl)cyclohexylcarbonylamino]3-carboxypropionylamino)ethoxy)ethoxy]acetylamino)ethoxy]ethoxy)acetyl][Aib8, Glu22, Gln34]GLP-1-(7-37)
EC50: 100 to 150 nM

B15: N-alpha37-[2-(2-{2-[2-(2-{2-[(S)-4-Carboxy-4-({trans-4-[(19-carboxynonadecanoylamino)methyl]cyclohexanecarbonyl}amino)butyrylamino]ethoxy}ethoxy)acetylamino]eth … (peptide)
peptide: HAEGTFTSDVSSYLEEQAAREFIAWLVRGRK
modifications: desaminoHis7; Lys37 is bound to the peptide via its epsilon amino group (epsilon-Lys37); its N-alpha carries the acyl side chain printed in the name
EC50: 1 to 100 nM

B17: N-epsilon37-[2-(2-{2-[2-(2-{2-[(S)-4-Carboxy-4-({trans-4-[(19-carboxynonadecanoylamino)methyl]cyclohexanecarbonyl}amino)butyrylamino]ethoxy}ethoxy)acetylamino]e … (peptide)
peptide: B15 peptide
modifications: Aib8; Lys37 N-epsilon carries the acyl side chain printed in the name
EC50: 1 to 100 nM

B18: [ImPr^7,Arg^26,34,Glu^22]GLP-1-(7-37)Lys[2-(2-[2-((S)-4-((S)-4-(12-[4-(16-1H-tetrazol-5-ylhexadecanoylsulfamoyl)butyrylamino]dodecanoylamino)-4-carboxybutyrylam … (peptide)
peptide: HAEGTFTSDVSSYLEEQAAREFIAWLVRGRGK
modifications: ImPr7 (imidazopropionic acid = des-amino-histidine); the added C-terminal Lys carries the acyl side chain printed in the name; C-terminal amide
EC50: 1 to 100 nM

B23: N-epsilon37-[2-(2-{2-[2-(2-{2-[(S)-4-Carboxy-4-({trans-4-[(19-carboxy-nonadecanoylamino)methyl]cyclohexanecarbonyl}amino)butyrylamino]ethoxy}ethoxy)acetylamino] … (peptide)
peptide: H[Aib]EGTFTSDVSSYLEEQAAREFIAWLVRGRK([AEEA-AEEA-γGlu-Trx-C20 diacid])-NH2
EC50: 800 to 2000 nM

Next, values leading:

EC50: 1 to 100 nM
B1: N-epsilon20-[2-(2-{2-[(S)-4-Carboxy-4-((S)-4-carboxy-4-{12-[4-(16-(1H-tetrazol-5-yl)hexadecanoylsulfamoyl)butyrylamino]dodecanoylamino}butyrylamino)butyrylamino … (peptide)
peptide: HAEGTFTSDVSSYKEEQAAREFIEWLVKGRP
modifications: Aib8; Lys20 N-epsilon carries the acyl side chain printed in the name; C-terminal amide

EC50: 800 to 2000 nM
B2: N-epsilon … (peptide)
peptide: HAEGTFTSDVSKYLEEQAAKEFIAWLVQGRG
modifications: not fully specified; Aib8; Lys18 N-epsilon carries the acyl side chain printed in the name

EC50: 150 to 300 nM
B5: N-epsilon30{2-[2-(2-{2-[2-((S)-3-carboxy-3-{[1-(19-carboxynonadecanoyl)piperidine-4-carbonyl]amino}propionylamino)ethoxy]ethoxy}acetylamino)ethoxy]ethoxy}acetyl … (peptide)
peptide: H[Aib]EGTFTSDVSSYLEEQAAREFIKWLVKGRG
modifications: not fully specified (residue 24); printed as N-epsilon30{2-[2-(2-{2-[2-((S)-3-carboxy-3-{[1-(19-carboxynonadecanoyl)piperidine-4-carbonyl]amino}propionylamino)ethoxy]ethoxy}acetylamino)ethoxy]ethoxy}acetyl [Aib8,Glu22,Arg26,Lys30]GLP-1-(7-37)

EC50: 800 to 2000 nM
B7: N-epsilon … (peptide)
peptide: H[Aib]EGTFTSDVSKYLE[Aib]QAAREFIAWLVR[Aib]RG
modifications: not fully specified (residue 12); printed as N-epsilon 18-[2-(2-[2-(2-[2-(2-((R)-3-[trans-4-((9-Carboxynonadecanoylamino]methyl)cyclohexylcarbonylamino]3-carboxypropionylamino)ethoxy)ethoxy]acetylamino)ethoxy]ethoxy)acetyl][Aib8, 22,35, Lys18, Arg26,34]GLP-1-(7-37)

EC50: 300 to 800 nM
B11: N-epsilon37{2-[2-(2-{2-[2-((S)-3-carboxy-3-{[1-(19-carboxynonadecanoyl)piperidine-4-carbonyl]amino}propionylamino)ethoxy]ethoxy}acetylamino)ethoxy]ethoxy}acetyl … (peptide)
peptide: H[Aib]EGTFTSDVSSYLEEQAAREFIAWLVRGRK-NH2
modifications: not fully specified (residue 31); printed as N-epsilon37{2-[2-(2-{2-[2-((S)-3-carboxy-3-{[1-(19-carboxynonadecanoyl)piperidine-4-carbonyl]amino}propionylamino)ethoxy]ethoxy}acetylamino)ethoxy]ethoxy}acetyl [Aib8,Glu22,Arg26,Arg34,Lys37]GLP-1-(7-37)amide

EC50: 800 to 2000 nM
B12: [DesaminoHis7,Glu22,Arg26,Arg34]GLP-1-(7-37)Lys[2-(2-{2-[2-(2-{2-[4-Carboxy-4-({trans-4-[(19-carboxy-nonadecanoylamino)methyl]cyclohexanecarbonyl}amino)butyryla … (peptide)
peptide: [Desaminohistidyl]AEGTFTSDVSSYLEEQAAREFIAWLVRGRGK([AEEA-AEEA-γGlu-Trx-C20 diacid])-NH2
SMILES: CC[C@H](C)[C@H](NC(=O)[C@H](Cc1ccccc1)NC(=O)[C@H](CCC(=O)O)NC(=O)[C@H](CCCNC(=N)N)NC(=O)[C@H](C)NC(=O)[C@H](C)NC(=O)[C@H](CCC(N)=O)NC(=O)[C@H](CCC(=O)O)NC(=O)[C@H](CCC(=O)O)NC(=O)[C@H](CC(C)C)NC(=O)[C@H](Cc1ccc(O)cc1)NC(=O)[C@H](CO)NC(=O)[C@H](CO)NC(=O)[C@@H](NC(=O)[C@H](CC(=O)O)NC(=O)[C@H](CO)NC(=O)[C@@H](NC(=O)[C@H](Cc1ccccc1)NC(=O)[C@@H](NC(=O)CNC(=O)[C@H](CCC(=O)O)NC(=O)[C@H](C)NC(=O)CCc1c[nH]cn1)[C@@H](C)O)[C@@H](C)O)C(C)C)C(=O)N[C@@H](C)C(=O)N[C@@H](Cc1c[nH]c2ccccc12)C(=O)N[C@@H](CC(C)C)C(=O)N[C@H](C(=O)N[C@@H](CCCNC(=N)N)C(=O)NCC(=O)N[C@@H](CCCNC(=N)N)C(=O)NCC(=O)N[C@@H](CCCCNC(=O)COCCOCCNC(=O)COCCOCCNC(=O)CC[C@H](NC(=O)[C@H]1CC[C@H](CNC(=O)CCCCCCCCCCCCCCCCCCC(=O)O)CC1)C(=O)O)C(N)=O)C(C)C

EC50: 150 to 300 nM
B13: N-alpha8-[2-(4-imidazolyl)acetyl] … (peptide)
peptide: {2‑(4-imidazolyl)acetyl}-AEGTFTSDVSSYLEEQAAREFIAWLVRGRK([AEEA-AEEA-γGlu-Trx′-C20 diacid])
modifications: reading uncertain; also: printed as N-alpha8-[2-(4-imidazolyl)acetyl] N-epsilon37-[2-(2-{2-[2-(2-{2-[(S)-4-Carboxy-4-({trans-4-[(19-carboxynonadecanoylamino)methyl]cyclohexanecarbonyl}amino)butyrylamino]ethoxy}ethoxy)acetylamino]ethoxy}ethoxy)acetyl][Glu22,Arg26,Arg34,Lys37]GLP-1-(8-37)
notes: GLP-1-(8-37) = residues 2-31 of the entry

EC50: 1 to 100 nM
B14: N-epsilon26-[2-(2-{2-[(S)-4-Carboxy-4-((S)-4-carboxy-4-{12-[4-(16-(1H-tetrazol-5-yl)hexadecanoylsulfamoyl)butyrylamino]dodecanoylamino}butyrylamino)butyrylamino … (peptide)
peptide: HAEGTFTSDVSSYLEGQAAKEFIAWLKR
modifications: Aib8; N-epsilon26 (so in the source) carries the acyl side chain printed in the name
notes: GLP-1-(7-34) = residues 1-28 of the entry

EC50: 800 to 2000 nM
B16: N-epsilon37-[2-(2-{2-[(S)-4-Carboxy-4-((S)-4-carboxy-4-{12-[4-(16-(1H-tetrazol-5-yl)hexadecanoylsulfamoyl)butyrylamino]dodecanoylamino}butyrylamino)butyrylamino … (peptide)
peptide: B15 peptide
modifications: Aib8; Lys37 N-epsilon carries the acyl side chain printed in the name; C-terminal amide

EC50: > 2000 nM
B19: [desaminoHis^7,Arg^26,Arg^34]GLP-1-(7-37)Lys[2-(2-[2-(2-[2-(2-((R)-3-[trans-4-((9-Carboxynonadecanoylamino]methyl)cyclohexylcarbonylamino]3-carboxypropionylamin … (peptide)
peptide: [Desaminohistidyl]AEGTFTSDVSSYLEGQAAREFIAWLVRGRGK-NH2
modifications: not fully specified (residue 32); printed as [desaminoHis^7,Arg^26,Arg^34]GLP-1-(7-37)Lys[2-(2-[2-(2-[2-(2-((R)-3-[trans-4-((9-Carboxynonadecanoylamino]methyl)cyclohexylcarbonylamino]3-carboxypropionylamino)ethoxy)ethoxy]acetylamino)ethoxy]ethoxy)acetyl]amide

EC50: 150 to 300 nM
B20: [Aib8,Glu22,Arg26,Glu30,Pro37]GLP-1-(7-37)Lys … (peptide)
peptide: B18 peptide with A24E, R28K, G31P
modifications: Aib8; the added C-terminal Lys carries the acyl side chain printed in the name

EC50: 300 to 800 nM
B21: [Aib8,Glu22,Arg26,Glu30,Pro37]GLP-1-((7-37)Lys … (peptide)
peptide: H[Aib]EGTFTSDVSSYLEEQAAREFIEWLVKGRPK
modifications: not fully specified (residue 32); printed as [Aib8,Glu22,Arg26,Glu30,Pro37]GLP-1-(7-37)Lys (2-(2-(3-(2-(2-(2-(2-(2-(2-(2-(2-(2-(2-(2-(2-[4-(S)-carboxy-4-(4-(S)-carboxy-4-(4-{4-[16-(Tetrazol-5-yl)hexadecanoylsulfamoyl]butanoylamino}butanoylamino) butyrylamino)butyrylamino]ethoxy)ethoxy)ethoxy)ethoxy)ethoxy)ethoxy)ethoxy)ethoxy)ethoxy)ethoxy)ethoxy)ethoxy) propionylamino)ethoxy)ethoxy) peptide

EC50: > 2000 nM
B22: [DesaminoHis7,Arg26,34]-GLP-1 … (peptide)
peptide: [Desaminohistidyl]AEGTFTSDVSSYLEGQAAREFIAWLVRGRGK([AEEA-AEEA-γGlu-Inp-C20 diacid])
